Reference: patent US9969998B2, “Compositions of adenosine deaminase-2 (ADA2), variants thereof and methods of using same” (Halozyme, Inc., priority 2014, dated 2018)

Assay: Kinetic assessment of adenosine deaminase activity (ammonia assay, Michaelis-Menten)
Format: biochemical
Details: [E] = 8.5 nM; for kcat: kcat=Vmax/0.0085/60
Experimental: Adenosine deaminase activity was determined by the measurement of ammonia released from adenosine when broken down to inosine. Ammonia was measured using a commercially available Ammonia Assay kit (Cat. No. AA0100, Sigma-Aldrich, St. Louis, Mo.). The kit contains dry reagents containing α-ketoglutaric acid and NADPH, which were reconstituted with 5 mL water prior to use in the assay. Ammonia reacts with α-ketogluaric acid (KGA) and reduced nicotinamide adenine dinucleotide phosphate (NADPH) in the presence of L-glutamate dehydrogenase (GDH).
Kinetics parameters of rHuADA2 WT and variants were compared using this assay at different adenosine concentrations at pH 7.6 and 6.5. Adenosine concentrations ranging from 20 μM to 20 mM were used. Sub-molar concentration of adenosine stock was prepared in 1N NaOH.
For the enzymatic assays at pH 7.6, adenosine was serially diluted with 100 mM sodium acetate (NaOAc), pH 4.9. A 2× reaction mixture was prepared, containing reconstituted ammonia assay reagent (containing about 4 mM α-ketoglutarate and about 300 μM NADPH), WT rHuADA2 or variants at 1 μg/mL (17 nM) and glutamate dehydrogenase (GDH, 1:50 dilution). 85 μL of adenosine was added to 85 μL 2× mixture in duplicate in a UV-transparent half-area plate. The change in absorbance (ΔA) at 340 nm over time at room temperature was monitored.
For the enzymatic assay at pH 6.5, adenosine was serially diluted with 200 mM piperazine-N,N′-bis(2-ethanesulfonic acid) (PIPES), pH 6.5. A 2× reaction mixture in 200 mM PIPES, pH 6.5 was prepared, containing 4 mM α-ketoglutarate, 300 μM NADPH, 1 μg/mL (17 nM) rHuADA2 or variants and 50 U/mL GDH (Cat No. G2626, Sigma-Aldrich). The enzymatic reaction was initiated by adding equal volume of adenosine to the 2× mixture in a UV-transparent half-area plate as described above, and the change in absorbance (AA) at 340 nm over time at room temperature was monitored.
Adenosine deaminase activity in mU/mL (μM/min equivalent) was calculated using the following formula: 1 mU/mL=−(−ΔA/min×Tv)/(Sv×ϵ×1) • where Tv=total volume (170 μL), Sv=sample volume (85 μL), ϵ=6.22×10^−3 μM^−1 cm^−1, 1=1 cm.
The activity data were fitted with non-linear regression of Michaelis-Menten equation using Graphpad Prism software to obtain Km and Vmax. Other kinetics parameters such as kcat and kcat/Km were also determined.

Row | Molecule | Km (pH 6.5) [µM] | Vmax (pH 6.5) [µM/min] | kcat (pH 6.5) [s⁻¹] | Km (pH 7.6) [µM] | Vmax (pH 7.6) [µM/min] | kcat (pH 7.6) [s⁻¹]
1 | R222Q/K374E: ADA2 combination variant SEQ ID NO:263 (protein, human ADA2 R219Q/K371E, mature numbering) IDETRAHLLLKEKMMRLGGRLVLNTKEELANERLMTLKIAEMKEAMRTLIFPPSMHFFQAKHLIERSQVFNILRMMPKGAALHLHDIGIVTMDWLVRNVTYRPHCHICFTPRGIMQFRFAHPTPRPSEKCSKWILLEDYRKRVQNVTEFDDSLLRNFTLVTQHPEVIYTNQNVVWSKFETIFFTISGLIHYAPVFRDYVFRSMQEFYEDNVLYMEIRAQLLPVYELSGEHHDEEWSVKTYQEVAQKFVETHPEFIGIKIIYSDHRSKDVAVIAESIRMAMGLRIKFPTVVAGFDLVGHEDTGHSLHDYKEALMIPAKDGVKLPYFFHAGETDWQGTSIDRNILDALMLNTTRIGHGFALSKHPAVRTYSWEKDIPIEVCPISNQVLKLVSDLRNHPVATLMATGHPMVISSDDPAMFGAKGLSYDFYEVFMGIGGMKADLRTLKQLAMNSIKYSTLLESEKNTFMEIWKKRWDKFIADVATK | 990 | 58.56 | 114.82 | 1580 | 87.27 | 171.12
2 | R222Q/S265N/K374D: ADA2 combination variant SEQ ID NO:269 (protein, human ADA2 R219Q/S262N/K371D, mature numbering) IDETRAHLLLKEKMMRLGGRLVLNTKEELANERLMTLKIAEMKEAMRTLIFPPSMHFFQAKHLIERSQVFNILRMMPKGAALHLHDIGIVTMDWLVRNVTYRPHCHICFTPRGIMQFRFAHPTPRPSEKCSKWILLEDYRKRVQNVTEFDDSLLRNFTLVTQHPEVIYTNQNVVWSKFETIFFTISGLIHYAPVFRDYVFRSMQEFYEDNVLYMEIRAQLLPVYELSGEHHDEEWSVKTYQEVAQKFVETHPEFIGIKIIYNDHRSKDVAVIAESIRMAMGLRIKFPTVVAGFDLVGHEDTGHSLHDYKEALMIPAKDGVKLPYFFHAGETDWQGTSIDRNILDALMLNTTRIGHGFALSKHPAVRTYSWDKDIPIEVCPISNQVLKLVSDLRNHPVATLMATGHPMVISSDDPAMFGAKGLSYDFYEVFMGIGGMKADLRTLKQLAMNSIKYSTLLESEKNTFMEIWKKRWDKFIADVATK | 760 | 50.89 | 99.78 | 1190 | 70.96 | 139.14
3 | R222Q/K374E/R23E: ADA2 combination variant SEQ ID NO:266 (protein, human ADA2 R219Q/K371E/R20E, mature numbering) IDETRAHLLLKEKMMRLGGELVLNTKEELANERLMTLKIAEMKEAMRTLIFPPSMHFFQAKHLIERSQVFNILRMMPKGAALHLHDIGIVTMDWLVRNVTYRPHCHICFTPRGIMQFRFAHPTPRPSEKCSKWILLEDYRKRVQNVTEFDDSLLRNFTLVTQHPEVIYTNQNVVWSKFETIFFTISGLIHYAPVFRDYVFRSMQEFYEDNVLYMEIRAQLLPVYELSGEHHDEEWSVKTYQEVAQKFVETHPEFIGIKIIYSDHRSKDVAVIAESIRMAMGLRIKFPTVVAGFDLVGHEDTGHSLHDYKEALMIPAKDGVKLPYFFHAGETDWQGTSIDRNILDALMLNTTRIGHGFALSKHPAVRTYSWEKDIPIEVCPISNQVLKLVSDLRNHPVATLMATGHPMVISSDDPAMFGAKGLSYDFYEVFMGIGGMKADLRTLKQLAMNSIKYSTLLESEKNTFMEIWKKRWDKFIADVATK | 860 | 54.48 | 106.82 | 1920 | 78.42 | 153.76
4 | R222Q/K374D: ADA2 combination variant SEQ ID NO:264 (protein, human ADA2 R219Q/K371D, mature numbering) IDETRAHLLLKEKMMRLGGRLVLNTKEELANERLMTLKIAEMKEAMRTLIFPPSMHFFQAKHLIERSQVFNILRMMPKGAALHLHDIGIVTMDWLVRNVTYRPHCHICFTPRGIMQFRFAHPTPRPSEKCSKWILLEDYRKRVQNVTEFDDSLLRNFTLVTQHPEVIYTNQNVVWSKFETIFFTISGLIHYAPVFRDYVFRSMQEFYEDNVLYMEIRAQLLPVYELSGEHHDEEWSVKTYQEVAQKFVETHPEFIGIKIIYSDHRSKDVAVIAESIRMAMGLRIKFPTVVAGFDLVGHEDTGHSLHDYKEALMIPAKDGVKLPYFFHAGETDWQGTSIDRNILDALMLNTTRIGHGFALSKHPAVRTYSWDKDIPIEVCPISNQVLKLVSDLRNHPVATLMATGHPMVISSDDPAMFGAKGLSYDFYEVFMGIGGMKADLRTLKQLAMNSIKYSTLLESEKNTFMEIWKKRWDKFIADVATK | 790 | 60.87 | 119.35 | 1710 | 77.01 | 151.00
5 | R222Q/S265N/K374E: ADA2 combination variant SEQ ID NO:268 (protein, human ADA2 R219Q/S262N/K371E, mature numbering) IDETRAHLLLKEKMMRLGGRLVLNTKEELANERLMTLKIAEMKEAMRTLIFPPSMHFFQAKHLIERSQVFNILRMMPKGAALHLHDIGIVTMDWLVRNVTYRPHCHICFTPRGIMQFRFAHPTPRPSEKCSKWILLEDYRKRVQNVTEFDDSLLRNFTLVTQHPEVIYTNQNVVWSKFETIFFTISGLIHYAPVFRDYVFRSMQEFYEDNVLYMEIRAQLLPVYELSGEHHDEEWSVKTYQEVAQKFVETHPEFIGIKIIYNDHRSKDVAVIAESIRMAMGLRIKFPTVVAGFDLVGHEDTGHSLHDYKEALMIPAKDGVKLPYFFHAGETDWQGTSIDRNILDALMLNTTRIGHGFALSKHPAVRTYSWEKDIPIEVCPISNQVLKLVSDLRNHPVATLMATGHPMVISSDDPAMFGAKGLSYDFYEVFMGIGGMKADLRTLKQLAMNSIKYSTLLESEKNTFMEIWKKRWDKFIADVATK | 800 | 45.53 | 89.27 | 1350 | 65.43 | 128.29
6 | R222Q/K374D/R23E: ADA2 combination variant SEQ ID NO:267 (protein, human ADA2 R219Q/K371D/R20E, mature numbering) IDETRAHLLLKEKMMRLGGELVLNTKEELANERLMTLKIAEMKEAMRTLIFPPSMHFFQAKHLIERSQVFNILRMMPKGAALHLHDIGIVTMDWLVRNVTYRPHCHICFTPRGIMQFRFAHPTPRPSEKCSKWILLEDYRKRVQNVTEFDDSLLRNFTLVTQHPEVIYTNQNVVWSKFETIFFTISGLIHYAPVFRDYVFRSMQEFYEDNVLYMEIRAQLLPVYELSGEHHDEEWSVKTYQEVAQKFVETHPEFIGIKIIYSDHRSKDVAVIAESIRMAMGLRIKFPTVVAGFDLVGHEDTGHSLHDYKEALMIPAKDGVKLPYFFHAGETDWQGTSIDRNILDALMLNTTRIGHGFALSKHPAVRTYSWDKDIPIEVCPISNQVLKLVSDLRNHPVATLMATGHPMVISSDDPAMFGAKGLSYDFYEVFMGIGGMKADLRTLKQLAMNSIKYSTLLESEKNTFMEIWKKRWDKFIADVATK | 670 | 60.68 | 118.98 | 1340 | 88.43 | 173.39
7 | R222Q/R23E: ADA2 combination variant SEQ ID NO:265 (protein, human ADA2 R219Q/R20E, mature numbering) IDETRAHLLLKEKMMRLGGELVLNTKEELANERLMTLKIAEMKEAMRTLIFPPSMHFFQAKHLIERSQVFNILRMMPKGAALHLHDIGIVTMDWLVRNVTYRPHCHICFTPRGIMQFRFAHPTPRPSEKCSKWILLEDYRKRVQNVTEFDDSLLRNFTLVTQHPEVIYTNQNVVWSKFETIFFTISGLIHYAPVFRDYVFRSMQEFYEDNVLYMEIRAQLLPVYELSGEHHDEEWSVKTYQEVAQKFVETHPEFIGIKIIYSDHRSKDVAVIAESIRMAMGLRIKFPTVVAGFDLVGHEDTGHSLHDYKEALMIPAKDGVKLPYFFHAGETDWQGTSIDRNILDALMLNTTRIGHGFALSKHPAVRTYSWKKDIPIEVCPISNQVLKLVSDLRNHPVATLMATGHPMVISSDDPAMFGAKGLSYDFYEVFMGIGGMKADLRTLKQLAMNSIKYSTLLESEKNTFMEIWKKRWDKFIADVATK | 840 | 60.47 | 118.57 | 1460 | 84.71 | 166.10
